Patent US6635738

What was measured:
[1] = target: IL-1 receptor on PC12 cells; test: cell-based or functional assay
[2] = target: IL-1β in PC12 cell cultures; test: cell-based or functional assay
[3] = target: Recombinant human pro-IL-1β, P01584
Recombinant human pro-IL-1β, P01584, sequence (P01584 whole entry, looked up): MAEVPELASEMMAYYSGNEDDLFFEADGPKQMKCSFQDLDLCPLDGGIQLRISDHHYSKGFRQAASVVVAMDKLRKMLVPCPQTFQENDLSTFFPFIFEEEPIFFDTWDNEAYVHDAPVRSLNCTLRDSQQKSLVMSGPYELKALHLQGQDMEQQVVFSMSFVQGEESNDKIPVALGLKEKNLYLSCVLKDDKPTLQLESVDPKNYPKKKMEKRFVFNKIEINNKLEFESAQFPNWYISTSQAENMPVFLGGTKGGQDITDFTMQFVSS

IL-1 receptor antagonist (rmIL-1Ra) (from UniProt P25085 27-178) (ligand)
suppression of death of V-ASOD1 treated (SOD1 deficient) PC12 cells; antagonist concentration used [1]: 100 ng/mL

Blocking monoclonal hamster anti-mouse IL-1β antibody (Genzyme)
suppression of death of V-ASOD1 treated (SOD1 deficient) PC12 cells; antibody concentration used [2]: 30 µg/mL

B1: Recombinant human ICE (interleukin 1β converting enzyme) (protein)
chain: NPAMPTSSGSEGNVKLCSLEEAQRIWKQKSAEIYPIMDKSSRTRLALIICNEEFDSIPRRTGAEVDITGMTMLLQNLGYSVDVKKNLTASDMTTELEAFAHRPEHKTSDSTFLVFMSHGIREGICGKKHSEQVPDILQLNAIFNMLNTKNCPSLKDKPKVIIIQACRGDSPGVVWFKDSVGVSGNLSLPTTEEFEDDAIKKAHIEKDFIAFCSSTPDNVSWRHPTMGSVFIGRLIEHMQEYACSCDVEEIFRKVRFSFEQPDGRAQMPTTERVTLTRCFYLFPGH
cleavage of pro-IL-1β by ICE in vitro (SDS-PAGE and immunoblot) [3]: There is some cleavage in the presence of the inhibitor but much less than seen with ICE alone
